Results as given in patent US9580733B2, “Methods of producing 6-carbon chemicals via methyl-ester shielded carbon chain elongation” (INVISTA North America S.á r.l., priority 2012, dated 2017).

Key:
Format in all cases: biochemical
[1] = Pimeloyl-[acp] methyl ester methylesterase activity assay, adipyl-CoA methyl ester to adipyl-CoA; details: 10 μM enzyme, 5 mM adipyl-CoA methyl ester, pH 7.0, 30° C., 1 h, FIG. 20
Description: A sequence encoding an C-terminal His-tag was added to the gene from Escherichia coli encoding the pimeloyl-[acp] methyl ester methylesterase of SEQ ID NO: 17 (see FIG. 7G) such that C-terminal HIS tagged pimeloyl-[acp] methyl ester methylesterase could be produced. The resulting modified gene was cloned into a pET28b+ expression vector under control of the T7 promoter and the expression vector was transformed into a BL21[DE3] E. coli host. The resulting recombinant E. coli strain was cultivated at 37° C. in a 500 mL shake flask culture containing 100 mL LB media and antibiotic selection pressure, with shaking at 230 rpm. Each culture was induced overnight at 18° C. using 0.3 mM IPTG.
The pellet from each induced shake flask culture was harvested via centrifugation. Each pellet was resuspended and lysed via sonication. The cell debris was separated from the supernatant via centrifugation. The pimeloyl-[acp] methyl ester methylesterase was purified from the supernatant using Ni-affinity chromatography, buffer exchanged and concentrated into 20 mM HEPES buffer (pH=7.5) via ultrafiltration and stored at 4° C.
Enzyme activity assays converting adipyl-CoA methyl ester to adipyl-CoA were performed in triplicate in a buffer composed of a final concentration of 25 mM Tris.HCl buffer (pH=7.0) and 5 [mM] adipyl-CoA methyl ester. […] The formation of adipyl-CoA was quantified via LC-MS.

[2] = ω-transaminase activity assay, reverse direction, 6-aminohexanoate to adipate semialdehyde; details: cell free extract, 10 mM 6-aminohexanoate, 10 mM pyruvate, 25° C., 24 h, vs empty vector control, FIG. 15
Description: (§1) A nucleotide sequence encoding a His-tag was added to the genes from Chromobacterium violaceum, Pseudomonas aeruginosa, Pseudomonas syringae, Rhodobacter sphaeroides, and Vibrio fluvialis encoding the ω-transaminases of SEQ ID NOs: 7, 8, 9, 10 and 12, respectively (see FIGS. 7E and 7F) such that N-terminal HIS tagged ω-transaminases could be produced. Each of the resulting modified genes was cloned into a pET21a expression vector under control of the T7 promoter and each expression vector was transformed into a BL21[DE3] E. coli host. The resulting recombinant E. coli strains were cultivated at 37° C. in a 250 mL shake flask culture containing 50 mL LB media and antibiotic selection pressure, with shaking at 230 rpm. Each culture was induced overnight at 16° C. using 1 mM IPTG.
(§2) The pellet from each induced shake flask culture was harvested via centrifugation. Each pellet was resuspended and lysed via sonication. The cell debris was separated from the supernatant via centrifugation and the cell free extract was used immediately in enzyme activity assays.
Enzyme activity assays in the reverse direction (i.e., 6-aminohexanoate to adipate semialdehyde) were performed in a buffer composed of a final concentration of 50 mM HEPES buffer (pH=7.5), 10 mM 6-aminohexanoate, 10 mM pyruvate and 100 μM pyridoxyl 5′ phosphate. Each enzyme activity assay reaction was initiated by adding cell free extract of the ω-transaminase gene product or the empty vector control to the assay buffer containing the 6-aminohexanoate and incubated at 25° C. for 24 h, with shaking at 250 rpm. The formation of L-alanine from pyruvate was quantified via RP-HPLC.

[3] = ω-transaminase activity assay, forward direction, adipate semialdehyde to 6-aminohexanoate; details: cell free extract, 10 mM adipate semialdehyde, 10 mM L-alanine, 25° C., 4 h, vs empty vector control, FIG. 16
Description: as §1, §2
Enzyme activity in the forward direction (i.e., adipate semialdehyde to 6-aminohexanoate) was confirmed for the transaminases of SEQ ID NO 7, SEQ ID NO 8, SEQ ID NO 9, SEQ ID NO 10 and SEQ ID NO 12. Enzyme activity assays were performed in a buffer composed of a final concentration of 50 mM HEPES buffer (pH=7.5), 10 mM adipate semialdehyde, 10 mM L-alanine and 100 μM pyridoxyl 5′ phosphate. Each enzyme activity assay reaction was initiated by adding a cell free extract of the ω-transaminase gene product or the empty vector control to the assay buffer containing the adipate semialdehyde and incubated at 25° C. for 4 h, with shaking at 250 rpm. The formation of pyruvate was quantified via RP-HPLC.

[4] = Carboxylate reductase activity assay, adipate semialdehyde to hexanedial; details: enhanced by gene product of sfp, 2 mM adipate semialdehyde, room temperature, 20 min, vs empty vector control, FIG. 13
Description: The N-terminal His-tagged carboxylate reductase of SEQ ID NO 7 (see Example 4 and FIG. 7E) was assayed using adipate semialdehyde as substrate. The enzyme activity assay was performed in triplicate in a buffer composed of a final concentration of 50 mM HEPES buffer (pH=7.5), 2 mM adipate semialdehyde, 10 mM MgCl2, 1 mM ATP and 1 mM NADPH. The enzyme activity assay reaction was initiated by adding purified carboxylate reductase and phosphopantetheine transferase or the empty vector control to the assay buffer containing the adipate semialdehyde and then incubated at room temperature for 20 min. The consumption of NADPH was monitored by absorbance at 340 nm.

[5] = Carboxylate reductase activity assay, adipate to adipate semialdehyde; details: enhanced by gene product of sfp, 2 mM adipate, room temperature, 20 min, vs empty vector control, FIG. 10
Description: A nucleotide sequence encoding a HIS-tag was added to the genes from Segniliparus rugosus and Segniliparus rotundus that encode the carboxylate reductases of SEQ ID NOs: 5 and 7, respectively (see FIGS. 7C and 7E), such that N-terminal HIS tagged carboxylate reductases could be produced. Each of the modified genes was cloned into a pET Duet expression vector along with a sfp gene encoding a HIS-tagged phosphopantetheine transferase from Bacillus subtilis, both under the T7 promoter. Each expression vector was transformed into a BL21[DE3] E. coli host and the resulting recombinant E. coli strains were cultivated at 37° C. in a 250 mL shake flask culture containing 50 mL LB media and antibiotic selection pressure, with shaking at 230 rpm. Each culture was induced overnight at 37° C. using an auto-induction media.
The pellet from each induced shake flask culture was harvested via centrifugation. Each pellet was resuspended and lysed via sonication, and the cell debris was separated from the supernatant via centrifugation. […]
Enzyme activity assays (i.e., from adipate to adipate semialdehyde) were performed in triplicate in a buffer composed of a final concentration of 50 mM HEPES buffer (pH=7.5), 2 mM adipate, 10 mM MgCl2, 1 mM ATP and 1 mM NADPH. […] The consumption of NADPH was monitored by absorbance at 340 nm.

Molecule	conversion of adipyl-CoA methyl ester to adipyl-CoA by pimeloyl-[acp] methyl ester methylesterase (LC-MS) [1]	ω-transaminase activity for converting 6-aminohexanoate to adipate semialdehyde (formation of L-alanine from pyruvate, RP-HPLC) [2]	ω-transaminase activity for converting adipate semialdehyde to 6-aminohexanoate (formation of pyruvate, RP-HPLC) [3]	carboxylate reductase activity for converting adipate semialdehyde to hexanedial (consumption of NADPH, absorbance at 340 nm) [4]	carboxylate reductase activity for converting adipate to adipate semialdehyde (consumption of NADPH, absorbance at 340 nm) [5]
SEQ ID NO. 17: Escherichia coli pimeloyl-[acp] methyl ester esterase (GenBank Accession No. AAC76437.1), C-terminal His-tagged (protein, listed as Escherichia coli, C-terminal His tag) MNNIWWQTKGQGNVHLVLLHGWGLNAEVWRCIDEELSSHFTLHLVDLPGFGRSRGFGALSLADMAEAVLQQAPDKAIWLGWSLGGLVASQIALTHPERVQALVTVASSPCFSARDEWPGIKPDVLAGFQQQLSDDFQRTVERFLALQTMGTETARQDARALKKTVLALPMPEVDVLNGGLEILKTVDLRQPLQNVSMPFLRLYGYLDGLVPRKVVPMLDKLWPHSESYIFAKAAHAPFISHPAEFCHLLVALKQRV	accepted adipyl-CoA methyl ester as substrate				
SEQ ID NO 7: Segniliparus rotundus carboxylate reductase (Genbank Accession No. ADG98140.1); in Example 2 the same label is printed for a ω-transaminase (protein, listed as Segniliparus rotundus) MTQSHTQGPQASAAHSRLARRAAELLATDPQAAATLPDPEVVRQATRPGLRLAERVDAILSGYADRPALGQRSFQTVKDPITGRSSVELLPTFDTITYRELRERATAIASDLAHHPQAPAKPGDFLASIGFISVDYVAIDIAGVFAGLTAVPLQTGATLATLTAITAETAPTLFAASIEHLPTAVDAVLATPSVRRLLVFDYRAGSDEDREAVEAAKRKIADAGSSVLVDVLDEVIARGKSAPKAPLPPATDAGDDSLSLLIYTSGSTGTPKGAMYPERNVAHFWGGVWAAAFDEDAAPPVPAINITFLPLSHVASRLSLMPTLARGGLMHFVAKSDLSTLFEDLKLARPTNLFLVPRVVEMLYQHYQSELDRRGVQDGTREAEAVKDDLRTGLLGGRILTAGFGSAPLSAELAGFIESLLQIHLVDGYGSTEAGPVWRDGYLVKPPVTDYKLIDVPELGYFSTDSPHPRGELAIKTQTILPGYYKRPETTAEVFDEDGFYLTGDVVAQIGPEQFAYVDRRKNVLKLSQGEFVTLAKLEAAYSSSPLVRQLFVYGSSERSYLLAVIVPTPDALKKFGVGEAAKAALGESLQKIARDEGLQSYEVPRDFIIETDPFTVENGLLSDARKSLRPKLKEHYGERLEAMYKELADGQANELRDIRRGVQQRPTLETVRRAAAAMLGASAAEIKPDAHFTDLGGDSLSALTFSNFLHDLFEVDVPVGVIVSAANTLGSVAEHIDAQLAGGRARPTFATVHGKGSTTIKASDLTLDKFIDEQTLEAAKHLPKPADPPRTVLLTGANGWLGRFLALEWLERLAPAGGKLITIVRGKDAAQAKARLDAAYESGDPKLAGHYQDLAATTLEVLAGDFSEPRLGLDEATWNRLADEVDFISHPGALVNHVLPYNQLFGPNVAGVAEIIKLAITTRIKPVTYLSTVAVAAGVEPSALDEDGDIRTVSAERSVDEGYANGYGNSKWGGEVLLREAHDRTGLPVRVFRSDMILAHQKYTGQVNATDQFTRLVQSLLATGLAPKSFYELDAQGNRQRAHYDGIPVDFTAESITTLGGDGLEGYRSYNVFNPHRDGVGLDEFVDWLIEAGHPITRIDDYDQWLSRFETSLRGLPESKRQASVLPLLHAFARPGPAVDGSPFRNTVFRTDVQKAKIGAEHDIPHLGKALVLKYADDIKQLGLL		accepted 6-aminohexanote as substrate	accepted adipate semialdehyde as substrate	accepted adipate semialdehyde as substrate	accepted adipate as substrate
